Reference: US20220119446A1, “BIOMARKERS AND TREATMENT OF NEURONAL INJURY AND NEURODEGENERATION” (Board of Supervisons of Louisiana State University and …, priority 2018, published 2022)

System: β-catenin
Assay: TOP Flash/FOP flash luciferase reporter in hpRPE cells
Format: cell-based, human
Settings: hpRPE cells undergoing UOS+/−NPD1
From the text: We tested whether or not Wnt5a activates […] using TOP Flash/FOP flash reporter system in hpRPE cells undergoing UOS+/−NPD1 (FIG. 1g).
Except TOP/FOP flash, the Luciferase activity can be standardized using a construct expressing GFP constitutively under CMV virus promoter. To assess luciferase activity, cell lysates can be obtained using Passive Lysis Buffer (Promega, Madison, Wis.) and mixed with a luciferase assay reagent (Promegam Madison, Wis.). Chemiluminescence produced by luciferase and fluorescence from GFP can be detected using Appliscan 2.3. Data can be analyzed using SkanIt 2.3 (Thermo Fisher Scientific, Waltham, Mass.).
Except TOP/FOP flash, the Luciferase activity was standardized using a construct expressing GFP constitutively under CMV virus promoter. To assess luciferase activity, cell lysates were obtained using Passive Lysis Buffer (Promega) and mixed with a luciferase assay reagent (Promega). Chemiluminescence produced by luciferase and fluorescence from GFP was detected using Appliscan 2.3. Data were analyzed using SkanIt 2.3 (Thermo Fisher Scientific).

B1: Wnt3a: recombinant protein, R&D systems 5036-WN; canonical Wnt ligand (protein, UniProt P56704 19-352, looked up)
Protein Wnt-3a: SYPIWWSLAVGPQYSSLGSQPILCASIPGLVPKQLRFCRNYVEIMPSVAEGIKIGIQECQHQFRGRRWNCTTVHDSLAIFGPVLDKATRESAFVHAIASAGVAFAVTRSCAEGTAAICGCSSRHQGSPGKGWKWGGCSEDIEFGGMVSREFADARENRPDARSAMNRHNNEAGRQAIASHMHLKCKCHGLSGSCEVKTCWWSQPDFRAIGDFLKDKYDSASEMVVEKHRESRGWVETLRPRYTYFKVPTERDLVYYEASPNFCEPNPETGSFGTRDRTCNVSSHGIDGCDLLCCGRGHNARAERRREKCRCVFHWCCYVSCQECTRVYDVHTCK
β-catenin activity (luciferase): rose almost twice
